The record followed here is patent US20130324477A1 (L OREAL, published 2013).

For this experiment, the target named is T1, filaggrin-2 (FLG2) fragment identified as prey in the double-hybrid screens, corresponding to amino acids … (human, UniProt Q5D862 2-213).
T1 construct: range 2-213; Prey
T1 sequence (looked up): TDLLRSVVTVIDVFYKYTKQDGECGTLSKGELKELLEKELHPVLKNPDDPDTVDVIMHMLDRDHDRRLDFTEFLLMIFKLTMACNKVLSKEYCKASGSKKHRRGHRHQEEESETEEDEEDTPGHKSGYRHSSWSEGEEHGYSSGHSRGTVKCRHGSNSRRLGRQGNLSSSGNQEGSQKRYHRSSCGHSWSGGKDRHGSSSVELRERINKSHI
Nature of the experiment: supplementary double-hybrid experiments.

B1: N-terminal fragment of SASPase-28 (amino acids 11-86, SEQ ID No.: 16) (peptide)
chain: RQHAFVPEPFDGANVVPNLWLHSFEVINDLNHWDHITKLRFLKESLRGEALGVYNRLSPQDQGDYGTVKEALLKAFG
With B1, the binding result is reported as “binds”.
